{"source": "paper PMC11251522", "key": {"Sox2 HMG (human)": {"target": "Sox2 HMG (human) (UniProt P48431)", "sequence (P48431 40-123)": "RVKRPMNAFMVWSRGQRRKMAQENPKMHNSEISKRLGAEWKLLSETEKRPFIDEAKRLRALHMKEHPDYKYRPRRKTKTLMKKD", "assay": "fluorescence anisotropy", "details": "FP at 4°C, ERα: 20 mM Tris pH 7.5 (at 25°C), 100 mM NaCl, 5% glycerol, 0.01% IGEPAL, Sox2: 10 mM Tris pH 7.5 (at 25°C), 135 mM KCl, 15 mM NaCl, 0.1 mg/mL BSA …"}, "ERα DBD-Ext (human)": {"tested_on": "ERα DBD-Ext (human)", "assay": "fluorescence anisotropy", "details": "apparent, FP at 4°C, ERα: 20 mM Tris pH 7.5 (at 25°C), 100 mM NaCl, 5% glycerol, 0.01% IGEPAL, Sox2: 10 mM Tris pH 7.5 (at 25°C), 135 mM KCl, 15 mM NaCl, 0.1 mg/mL BSA …"}}, "note": "pKd: −log10 of the molar value."}
{"substance": "NBS dsDNA (19 bp)", "values": [{"measurement": "pKd", "setting": "Sox2 HMG (human); apparent, Hill n 0.57", "value": 7.54}]}
{"substance": "ΔERE dsDNA (15 bp, half-site)", "values": [{"measurement": "pKd", "setting": "ERα DBD-Ext (human); Hill n 1.5, about half the ligand concentration, true Kd may be lower", "value": 8.55}]}
{"substance": "ERE dsDNA (18 bp)", "values": [{"measurement": "pKd", "setting": "ERα DBD-Ext (human); Hill n 2.1", "value": 7.96}]}
{"substance": "XBP1 hRNA (37 nt)", "values": [{"measurement": "pKd", "setting": "ERα DBD-Ext (human); Hill n 0.91", "value": 6.43}]}
{"substance": "CBS dsDNA (10 bp)", "values": [{"measurement": "pKd", "setting": "Sox2 HMG (human); printed ≤1, first (high-affinity) transition, 54% of signal", "value": "> 9.00"}, {"measurement": "pKd", "setting": "Sox2 HMG (human); second (low-affinity) transition", "value": 6.38}]}
{"substance": "hRNA (43 nt)", "values": [{"measurement": "pKd", "setting": "Sox2 HMG (human); apparent, Hill n 1.1", "value": 7.28}]}
